From patent publication US11685901B2, “Compositions and methods for organoid generation and disease modeling” (Salk Institute for Biological Studies, priority 2016, dated 2023)

Tests used:
INS-1 cells = assay: Proinsulin-NanoLuc Gaussia luciferase insulin secretion assay in INS-1 cells; type: cell-based, rat; settings: INS-1 stably expressing Proinsulin-NanoLuc; G20 mM + 100 nM Ex4; 20 mM KCl
Procedure: INS-1 cells were infected with the virus by spinfection (800 g, 1 hour at 37 degrees Celsius) and then changed to fresh INS-1 growth media. Seventy-two (72) hours after transfection, INS-1 cells were treated with 5 μg/ml Blasticidin (Invitrogen) for 7 days to select for Proinsulin-NanoLuc expressing cells. For insulin secretion assay, the cells (5×10^4-1×10^5 cells/well in 96 well) were pre-cultured in 3 mM glucose KRBB (100 μl/well). The cells were then incubated in KRBB (100 μl/well) with 3 mM and then sequentially incubated with 20 mM glucose with or without 100 nM Exendine-4 or 3 mM glucose with 20 mM KCl (100 μl/well). To determine Gaussia Luciferase activity as indicator of insulin secretion levels, 10 μl of samples are used for Luciferase assay using Pierce Gaussia Luciferase Flash Assay Kit (Prod #16159, Thermo Scientific).

[1] = tested on: human islet-like organoids; assay: Gaussia luciferase insulin secretion assay in human islet-like organoids; type: cell-based; settings: 10 to 100 per assay
Procedure: Mouse islets, human islets and human islets like organoids were plated in their respective growth media with 10 μg/ml Polybrene® polymer (Santacruz). Viruses were then added. After overnight culture, cells were placed in fresh growth media. […] Then, insulin secretion assays were performed. […] The cells were then incubated in KRBB (100 μl/well) with 3 mM for 30 min and then sequentially incubated with 20 mM glucose with or without 100 nM Exendin-4 or 3 mM glucose with 20 mM KCl (100 μl/well). To determine Gaussia Luciferase activity as indicator of insulin secretion levels, 10 μl of samples are used for Luciferase assay using Pierce Gaussia Luciferase Flash Assay Kit (Prod #16159, Thermo Scientific).

[2] = tested on: human islet-like organoids; assay: hIAPP toxicity, propidium iodide staining of islet-like organoids; type: cell-based
From the text: FIG. 7 is a schematic showing modeling of human Type 2 diabetes in a dish. Generation of functional human organs such as a liver, pancreas, and islets provides new therapeutic strategies in drug-screening and modeling of human type 2 diabetes.
Generation of functional human organs according to methods described herein provides new strategies for drug-screening and disease modeling. Specifically, functional organoids can be used as models of type 2 diabetes for drug screening (FIG. 7).

[3] = tested on: hiPSC-derived islet organoids; assay: Gene expression (qPCR) in hiPSC-derived islet organoids treated with WNT proteins; type: cell-based, human; settings: for ERRγ-mitochondrial metabolic pathway: FIGS. 12A-12H; for Esrrg gene expression / expression of mitochondrial genes involved in oxidative phosphorylation (Cox7a2, Ndufa1, Ndufa7), lactate dehydrogenase (Ldha) and Fltp: organoids generated in the absence of hADSC or HUVECs, increasing doses rhWNT4 0-200 ng/ml, rhWNT5a 0-400 ng/ml
Procedure: Human PSCs, including iPSC or ESC, were initially cultured in matrigel-coated plates (2 dimensional (2D) cultures. Cells were then treated with Accutase (Innovative Cell Technologies, Inc., San Diego, Calif.) to generate a single cell suspension, washed with PBS and centrifuged at 1000-1300 rpm for 5 minutes to pellet cells. Cells were resuspended with 3DKG Stem TeSR™ Base Medium (Stemcell Technologies, Cambridge, Mass.) with 10 μM Y-27632 (a RHO/ROCK pathway inhibitor compound) and cultured for an additional for 5 to 7 days until PSC sphere growth reached 50-100 μm diameter. Media was then replaced with differentiation media supplemented with 0.015% Kelcogel and 0.3% Methylcellulose. The culture medium was changed to differentiation medium ([…]) containing 100 ng/ml human Activin (R&D Systems), 25 ng/ml recombinant human Wnt3a (R&D Systems) or 3 μM CHIR99021, a glycogen synthase kinase GSK-3 inhibitor (Axon Medchem, Reston, Va.; or Selleckchem) for 1 day and then to differentiation medium (S1) containing 100 ng/ml human Activin for another 2 days (Stage 1, Pancreatic Endoderm). Subsequently, the medium was replaced with differentiation medium (S2) containing 50 ng/ml FGF7 (R&D Systems) for 2 days, and then with differentiation medium (S3) containing 50 ng/ml FGF7, 0.25 μM SANT-1 (Sigma), 1 μM Retinoic Acid (Sigma), 100 nM LDN193189 (an ALK2 and ALK3 inhibitor, Sigma) and 100 nM α-Amyloid Precursor Protein Modulator TPB for 3 days. Subsequently, this medium was replaced with differentiation medium (S4) containing 0.25 μM SANT-1, 50 nM Retinoic Acid, 10 μM Alk5 inhibitor II, 1 μM T3 for 3 days. Subsequently, the medium was replaced with differentiation medium (S5) containing 100 nM LDN193189, 100 nM Gamma Secretase inhibitor XX GSiXX (Millipore) 10 μM Alk5 inhibitor II, 1 μM T3 for 7 days. Subsequently, the medium was replaced with differentiation medium (S5) containing 10 uM Trolox (Calbiochem), 2 μM R428 (Selleckchem), 1 mM N-acetyl cysteine, 10 μM Alk5 inhibitor II, 1 μM T3 for an additional 7 to 20 days. After confirmation of the insulin gene expression by either reporter expression or qPCR (typically on day 20-30), the medium was changed to differentiation medium (S5) containing 10 μM Trolox (Calbiochem), 2 μM R428 (Selleckchem), 1 mM N-acetyl cysteine, 10 μM Alk5 inhibitor II, 1 μM T3 and 100 ng/ml recombinant human (rh)Wnt4 (R&D Systems), 400 ng/ml rhWnt5a, or 50% Wnt5a conditioned medium for 1-20 days. Wnt5a conditioned medium was prepared by culturing an L-Wnt5a cell line (ATCC, CRL-2814) in DMEM with 10% FBS, 1% Penicillin-streptomycin for 4 days after cells had reached 70-100% confluence in T175-T225 Frasko cell culture flasks.
Total RNA was extracted using TRIzol reagent (Invitrogen) and RNeasy KIT (Qiagen). Reverse transcription was performed with a SuperScript III First-Strand Synthesis System kit (Invitrogen) or PrimeScript RT reagent kit (TAKARA). Real time quantitative RT-PCR (qPCR) was performed using SYBR Green (Bio-Rad).
(FIG. 12A). […] In addition, mitochondrial genes involved in oxidative phosphorylation (Cox7a2, Ndufa1, Ndufa7), lactate dehydrogenase (Ldha) and Fltp (a Wnt/planar cell polarity (PCP) effector and reporter gene) were induced in hiPSC-derived islet organoids that were generated in the absence of supporting hADSC or HUVECs, in response to increasing doses of rhWNT4 (0, 10, 25, 50, 100, 200 ng/ml) and rhWNT5a (0, 25, 50, 100, 200, 400 ng/ml), (FIG. 12C). Mitochondrial (Mitotracker; Mito-Red) and insulin (Insulin-GFP) levels were increased in hiPSC-derived islet organoids (day 27) after 8 days treatment with PBS or WNT4 (100 ng/ml). (FIG. 12D). Human iPSC-derived islet organoids (day 27) were generated after 8 days treatment with PBS or WNT4 (100 ng/ml). (FIG. 12E). […]

[4] = tested on: hiPSC-derived islet organoids; assay: Fluorescence imaging and FACS analysis of hiPSC-derived islet organoids (Mitotracker, Insulin-GFP); type: cell-based, human; settings: organoids day 27, 8 days treatment; for Insulin production (FACS): rhWNT4 100 ng/ml, rhWNT5a 400 ng/ml, conditioned media 50%, compared with PBS and control conditioned media
Procedure: FIGS. 12A-12H show a set of bar graphs and images illustrating the role of WNT proteins in the metabolic maturation of iPSC-derived islet organoids. […] FIG. 12B is a bar graph showing the induction of Esrrg gene expression in hiPSC-derived islet organoids, generated in the absence of supporting hADSC or HUVECs, in response to increasing doses of WNT4 (0, 10, 25, 50, 100, 200 ng/ml) and WNT5a (0, 25, 50, 100, 200, 400 ng/ml). FIG. 12C is a bar graph showing the induction of mitochondrial genes involved in oxidative phosphorylation (Cox7a2, Ndufa1, Ndufa7), lactate dehydrogenase (Ldha) and Fltp (a Wnt/planar cell polarity (PCP) effector and reporter gene) in hiPSC-derived islet organoids, generated in the absence of supporting hADSC or HUVECs, in response to increasing doses of WNT4 (0, 10, 25, 50, 100, 200 ng/ml) and WNT5a (0, 25, 50, 100, 200, 400 ng/ml). […] FIGS. 12F, 12G, and 12H show a set of bar graphs illustrating the results of FACS analyses of hiPSC-derived islet organoids (day 27) after 8 days treatment with PBS, WNT4 (100 ng/ml), WNT5a (400 ng/ml), control fibroblast conditioned media (50%), or WNT5a secreting fibroblast conditioned media (50%). The WNT proteins used were recombinant human (rh) proteins.
Human PSCs, including iPSC or ESC, were initially cultured in matrigel-coated plates (2 dimensional (2D) cultures. Cells were then treated with Accutase (Innovative Cell Technologies, Inc., San Diego, Calif.) to generate a single cell suspension, washed with PBS and centrifuged at 1000-1300 rpm for 5 minutes to pellet cells. Cells were resuspended with 3DKG Stem TeSR™ Base Medium (Stemcell Technologies, Cambridge, Mass.) with 10 μM Y-27632 (a RHO/ROCK pathway inhibitor compound) and cultured for an additional for 5 to 7 days until PSC sphere growth reached 50-100 μm diameter. Media was then replaced with differentiation media supplemented with 0.015% Kelcogel and 0.3% Methylcellulose. […]

[5] = tested on: hiPSC-derived islet organoids; assay: Insulin secretion assay (human c-peptide ELISA) of hiPSC-derived islet organoids; type: cell-based; settings: organoids day 22, 100 ng/ml for 12 days, G3 mM, G20 mM, KCL20 mM, without hADSC and HUVECs
Procedure: Insulin release from intact islets was monitored using batch incubation methods (Yoshihara et al., 2010, Nat. Commun. 1:127). Briefly, overnight-cultured isolated pancreatic islets (RPMI-1640 supplemented with 10% (v/v) fetal bovine serum and 1% (v/v) Antibiotic-Antimycotic (Gibco)) were pre-cultured at 37° C. for 30 min (Krebs-Ringer bicarbonate buffer (KRBB) containing 129.4 mM NaCl, 3.7 mM KCl, 2.7 mM CaCl2, 1.3 mM KH2PO4, 1.3 mM MgSO4, 24.8 mM NaHCO3 (equilibrated with 5% CO2, 95% O2, pH7.4), 10 mM HEPES and 0.2% (v/v) BSA (fraction V, Sigma) (KRBH) with 3 mM glucose). Pancreatic islets were then incubated in KRBH buffer (500 μl/10 islets) with 3 mM or 20 mM glucose to determine insulin secretion levels. After 30 min, islets were pelleted by centrifugation and insulin levels determined by ELISA (Rat/mouse Insulin ELISA KIT (Millipore) and Human Insulin ELISA KIT (Millipore) for mouse and human islets, respectively). For human iPSC derived cells, the cells (1×10^6 cells/well in 24 well) were pre-cultured in 3 mM glucose KRBH buffer (500 μl/well). The cells were then incubated in KRBB (200 μl/well) with 3 mM or 20 mM glucose to determine c-peptide secretion levels as indicator of insulin secretion levels. After 30 min, the cells were pelleted by centrifugation and c-peptide levels were determined by human c-peptide ELISA KIT (Millipore).

| Molecule | Luciferase secretion (insulin secretion) (INS-1 cells) | stimulated insulin secretion of pooled organoids (secreted luciferase) [1] | ERRγ-mitochondrial metabolic pathway [3] | Esrrg gene expression [3] | expression of mitochondrial genes involved in oxidative phosphorylation (Cox7a2, Ndufa1, Ndufa7), lactate dehydrogenase (Ldha) and Fltp [3] | Insulin production (FACS) [4] | also measured |
| --- | --- | --- | --- | --- | --- | --- | --- |
| [Cl-].[K+] [potassium chloride] | increased | robust | – | – | – | – | – |
| Exendin-4 | increased | – | – | – | – | – | – |
| GLP-1: incretin | – | enhanced GSIS | – | – | – | – | – |
| hIAPP: human amyloid polypeptide, an inducer of β cell loss in type 2 diabetic patients (KCNTATCATQRLANFLVHSSNNFGAILSSTNVGSNTY; Islet amyloid polypeptide; UniProt P10997 34-70, looked up) | – | – | – | – | – | – | G0/G1 arrest ([2]; 24 hours): dose-dependently induced G0/G1 arrest; apoptosis (propidium iodide staining in G0/G1 stage cells) ([2]; increasing concentrations): induces apoptosis |
| rhWNT5a: recombinant human Wnt5a protein (protein, UniProt P41221 62-380, looked up) Protein Wnt-5a: IIGAQPLCSQLAGLSQGQKKLCHLYQDHMQYIGEGAKTGIKECQYQFRHRRWNCSTVDNTSVFGRVMQIGSRETAFTYAVSAAGVVNAMSRACREGELSTCGCSRAARPKDLPRDWLWGGCGDNIDYGYRFAKEFVDARERERIHAKGSYESARILMNLHNNEAGRRTVYNLADVACKCHGVSGSCSLKTCWLQLADFRKVGDALKEKYDSAAAMRLNSRGKLVQVNSRFNSPTTQDLVYIDPSPDYCVRNESTGSLGTQGRLCNKTSEGMDGCELMCCGRGYDQFKTVQTERCHCKFHWCCYVKCKKCTEIVDQFVCK | – | – | activate | induced | induced | found | – |
| rhWNT4: recombinant human (rh)Wnt4 protein (R&D Systems) (protein, UniProt P56705 23-351, looked up) Protein Wnt-4: SNWLYLAKLSSVGSISEEETCEKLKGLIQRQVQMCKRNLEVMDSVRRGAQLAIEECQYQFRNRRWNCSTLDSLPVFGKVVTQGTREAAFVYAISSAGVAFAVTRACSSGELEKCGCDRTVHGVSPQGFQWSGCSDNIAYGVAFSQSFVDVRERSKGASSSRALMNLHNNEAGRKAILTHMRVECKCHGVSGSCEVKTCWRAVPPFRQVGHALKEKFDGATEVEPRRVGSSRALVPRNAQFKPHTDEDLVYLEPSPDFCEQDMRSGVLGTRGRTCNKTSKAIDGCELLCCGRGFHTAQVELAERCSCKFHWCCFVKCRQCQRLVELHTCR | – | – | activate | induced | induced | found | functional maturation based on secretion of human c-peptide ([5]; listed as Wnt4): sufficient to induce in vitro functional maturation; functional maturation based on secretion of human c-peptide ([5]; listed as rhWnt4): functional maturation; Mitochondrial (Mitotracker; Mito-Red) and insulin (Insulin-GFP) levels ([4]; 100 ng/ml): increased |
